Measured values reported in article PMC8104893 (Science Advances, 2021).

Target: T1, GST-XBAT31 (Arabidopsis, UniProt Q94B55 1-456)
T1 sequence (looked up): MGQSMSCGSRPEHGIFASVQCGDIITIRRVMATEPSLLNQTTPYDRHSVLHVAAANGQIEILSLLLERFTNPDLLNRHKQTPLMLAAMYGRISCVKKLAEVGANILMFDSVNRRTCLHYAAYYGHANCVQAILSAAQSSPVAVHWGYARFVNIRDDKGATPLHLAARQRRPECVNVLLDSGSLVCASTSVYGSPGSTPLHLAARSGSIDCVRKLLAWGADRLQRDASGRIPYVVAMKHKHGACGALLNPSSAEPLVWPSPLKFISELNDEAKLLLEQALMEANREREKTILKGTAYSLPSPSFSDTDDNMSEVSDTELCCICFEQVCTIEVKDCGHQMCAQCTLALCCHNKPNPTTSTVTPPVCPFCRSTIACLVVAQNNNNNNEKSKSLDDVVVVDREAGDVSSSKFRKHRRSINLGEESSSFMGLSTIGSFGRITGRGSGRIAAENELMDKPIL
Assay: pull-down

B1: MBP-BBX18 (natural protein, Arabidopsis, UniProt Q9SJU5 1-172, looked up)
chain: MRILCDACESAAAIVFCAADEAALCCSCDEKVHKCNKLASRHLRVGLADPSNAPSCDICENAPAFFYCEIDGSSLCLQCDMVVHVGGKRTHRRFLLLRQRIEFPGDKPNHADQLGLRCQKASSGRGQESNGNGDHDHNMIDLNSNPQRVHEPGSHNQEEGIDVNNANNHEHE
binding result: binds
